Experimental data: publication PMC11665464

Columns and labels:
[1] = target: ALYREF-ΔNC, with the N- and C-terminal UAP56-binding motifs (UBMs) deleted (human) (UniProt Q86V81)
[2] = target: ALYREF-ΔNC, with the N- and C-terminal UAP56-binding motifs (UBMs) deleted (human) (UniProt Q86V81); experiment: pull-down; Nickel-NTA affinity pull-down: 2 ug His6-tagged ALYREF or variant with 4 ug UAP56 in 30 ul K buffer (20 mM KH2PO4 pH 7.4, 10% glycerol, 0.5 mM EDTA, 0.01% Igepal, 1 mM DTT) with 200 mM KCl and 15 mM imidazole, 30 min at 4 °C; captured on Ni-NTA resin, eluted with 2% SDS; SDS-PAGE, Coomassie stain

Chain of UAP56 (Q13838 whole entry): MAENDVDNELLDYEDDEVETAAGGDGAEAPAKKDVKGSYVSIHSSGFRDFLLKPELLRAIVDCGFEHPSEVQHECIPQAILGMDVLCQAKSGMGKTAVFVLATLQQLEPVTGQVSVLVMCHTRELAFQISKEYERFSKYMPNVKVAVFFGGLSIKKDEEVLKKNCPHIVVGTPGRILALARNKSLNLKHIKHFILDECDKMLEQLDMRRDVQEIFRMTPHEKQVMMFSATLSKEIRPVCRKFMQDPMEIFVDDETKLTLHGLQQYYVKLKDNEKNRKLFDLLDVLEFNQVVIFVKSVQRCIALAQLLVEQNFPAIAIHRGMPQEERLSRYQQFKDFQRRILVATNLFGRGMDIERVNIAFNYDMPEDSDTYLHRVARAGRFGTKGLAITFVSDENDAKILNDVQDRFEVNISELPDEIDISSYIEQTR

In the case of “UAP56 (from UniProt Q13838 1-428) (enzyme)”, the time course (5, 10, 15 min) of R-loop dissociation by 60 nM UAP56 with 6 nM ALYREF-ΔNC; fold increase at 5 min [1] is reported as 12 fold and the percent of the ability to interact with UAP56 lost, against WT ALYREF [2] is reported as 80%.
